Laboratory results published in patent US20220062373A1.

Target: Endogenous murine CD206 on M2-polarized bone marrow-derived macrophages (mouse) (UniProt Q61830)
Assay: LC-MS/MS proteomics of CD206 complexes pulled down with biotinylated RP-182 from M2 BMDMs

Endogenous murine CD206 on M2-polarized bone marrow-derived macrophages (mouse), sequence (Q61830 20-1456): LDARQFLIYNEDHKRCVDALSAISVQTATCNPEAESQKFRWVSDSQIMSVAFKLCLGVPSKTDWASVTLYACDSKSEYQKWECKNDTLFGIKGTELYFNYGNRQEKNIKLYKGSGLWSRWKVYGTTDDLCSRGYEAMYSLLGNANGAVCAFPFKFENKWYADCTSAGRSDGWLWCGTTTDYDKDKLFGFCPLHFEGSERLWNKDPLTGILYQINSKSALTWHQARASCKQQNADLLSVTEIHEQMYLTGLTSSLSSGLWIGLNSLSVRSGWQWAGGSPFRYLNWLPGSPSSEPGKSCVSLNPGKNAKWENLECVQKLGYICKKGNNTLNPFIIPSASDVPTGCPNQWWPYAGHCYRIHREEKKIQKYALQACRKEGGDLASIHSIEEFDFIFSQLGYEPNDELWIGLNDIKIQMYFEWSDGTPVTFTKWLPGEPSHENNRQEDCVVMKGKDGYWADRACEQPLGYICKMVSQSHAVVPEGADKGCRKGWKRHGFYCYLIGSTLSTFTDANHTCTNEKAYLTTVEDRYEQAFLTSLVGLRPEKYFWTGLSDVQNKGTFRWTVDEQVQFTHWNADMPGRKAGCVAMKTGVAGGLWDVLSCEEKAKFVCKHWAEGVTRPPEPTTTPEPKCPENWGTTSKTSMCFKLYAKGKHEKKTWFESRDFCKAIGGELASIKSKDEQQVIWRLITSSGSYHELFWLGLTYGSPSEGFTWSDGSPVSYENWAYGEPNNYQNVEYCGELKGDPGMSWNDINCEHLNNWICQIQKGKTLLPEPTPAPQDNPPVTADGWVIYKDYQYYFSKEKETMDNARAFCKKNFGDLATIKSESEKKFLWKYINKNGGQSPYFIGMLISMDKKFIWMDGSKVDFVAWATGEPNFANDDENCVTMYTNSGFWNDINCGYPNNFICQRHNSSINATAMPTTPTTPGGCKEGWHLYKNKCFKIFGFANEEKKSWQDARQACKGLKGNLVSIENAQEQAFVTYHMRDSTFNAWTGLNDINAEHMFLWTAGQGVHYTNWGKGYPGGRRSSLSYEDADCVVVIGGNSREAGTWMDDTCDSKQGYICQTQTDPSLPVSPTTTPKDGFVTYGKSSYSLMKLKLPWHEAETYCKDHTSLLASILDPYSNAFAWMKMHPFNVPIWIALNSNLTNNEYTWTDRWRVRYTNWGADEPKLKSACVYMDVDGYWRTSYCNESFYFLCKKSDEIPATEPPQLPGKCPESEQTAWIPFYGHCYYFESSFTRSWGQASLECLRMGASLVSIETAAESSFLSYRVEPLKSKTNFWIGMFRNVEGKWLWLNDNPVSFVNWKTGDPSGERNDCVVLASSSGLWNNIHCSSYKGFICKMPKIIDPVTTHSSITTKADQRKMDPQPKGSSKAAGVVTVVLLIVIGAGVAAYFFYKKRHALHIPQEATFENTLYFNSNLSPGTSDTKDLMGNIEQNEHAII

fold enriched in CD206 complexes against control [fold] | Substance
9 | IQ motif containing GTPase activating protein 1 (IQGAP1) (from UniProt Q9JKF1 2-1657)
76 | IQ motif containing GTPase activating protein 2 (IQGAP2) (from UniProt Q3UQ44 1-1575)
